Assay results from patent US20090163698A1 (published 2009).

Target: murine αVβ3/5 integrin (murine, UniProt P43406 31-1044)
Assay: cell-based or functional assay

murine αVβ3/5 integrin, sequence (P43406 31-1044): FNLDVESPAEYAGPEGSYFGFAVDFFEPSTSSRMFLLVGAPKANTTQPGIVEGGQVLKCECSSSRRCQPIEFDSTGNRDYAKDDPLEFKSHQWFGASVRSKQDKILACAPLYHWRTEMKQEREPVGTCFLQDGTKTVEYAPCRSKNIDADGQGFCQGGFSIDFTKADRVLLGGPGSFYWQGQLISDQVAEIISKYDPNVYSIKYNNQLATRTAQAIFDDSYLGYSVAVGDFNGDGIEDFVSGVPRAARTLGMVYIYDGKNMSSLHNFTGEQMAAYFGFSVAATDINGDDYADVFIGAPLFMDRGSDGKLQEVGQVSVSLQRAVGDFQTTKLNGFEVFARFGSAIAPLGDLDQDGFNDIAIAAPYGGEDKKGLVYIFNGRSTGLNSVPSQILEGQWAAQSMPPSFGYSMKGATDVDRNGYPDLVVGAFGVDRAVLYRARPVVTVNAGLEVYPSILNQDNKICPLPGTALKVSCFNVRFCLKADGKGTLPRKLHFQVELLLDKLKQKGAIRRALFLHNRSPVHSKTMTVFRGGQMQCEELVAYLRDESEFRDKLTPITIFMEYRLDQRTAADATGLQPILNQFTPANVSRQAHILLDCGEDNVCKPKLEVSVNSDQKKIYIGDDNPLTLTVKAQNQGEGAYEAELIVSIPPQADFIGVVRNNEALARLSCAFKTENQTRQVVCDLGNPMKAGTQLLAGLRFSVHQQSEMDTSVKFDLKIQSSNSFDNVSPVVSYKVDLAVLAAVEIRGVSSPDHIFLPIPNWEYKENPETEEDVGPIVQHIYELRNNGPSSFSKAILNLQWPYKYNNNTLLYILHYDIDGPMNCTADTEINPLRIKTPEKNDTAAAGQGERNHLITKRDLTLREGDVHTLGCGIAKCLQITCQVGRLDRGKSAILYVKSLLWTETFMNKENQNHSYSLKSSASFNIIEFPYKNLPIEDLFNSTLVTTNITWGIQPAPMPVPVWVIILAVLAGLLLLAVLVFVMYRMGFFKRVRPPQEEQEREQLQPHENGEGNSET

Increase (ratio of IC50 of liposome-entrapped doxorubicin to IC50 of 90:1 targeted liposomes), B16-F10 cells: 1 fold
B1: CNTO 95 Fab′ (anti-alpha-V Fab′ made by pepsin cleavage of the parent antibody, reduction and reoxidation), conjugated to MalPEG-DSPE on the surface of … (Fab, V domains shown)
VH: QVQLVESGGGVVQPGRSRRLSCAASGFTFSRYTMHWVRQAPGKGLEWVAVISFDGSNKYYVDSVKGRFTISRDNSENTLYLQVNILRAEDTAVYYCAREARGSYAFDIWGQGTMVTVSS
VL: EIVLTQSPATLSLSPGERATLSCRASQSVSSYLAWYQQKPGQAPRLLIYDASNRATGIPARFSGSGSGTDFTLTISSLEPEDFAVYYCQQRSNWPPFTFGPGTKVDIKR
modifications: free sulfhydryl near the C-terminus conjugated to maleimide-PEG-DSPE inserted in the liposome
